The target in assay [1] is human insulin-like growth factor I receptor IGF-IR (human) (UniProt P08069). As to the kind of experiment: displacement of [125I]IGF-1 on R+ intact cells expressing IGF-IR. In general terms: In a radioligand displacement assay an active substance lowers the binding of a labelled ligand.
In assay [2] the target is T1, human insulin-like growth factor I receptor IGF-IR (human, UniProt P08069 31-1367). In words: cell-based or functional assay.
The target of assay [3] is T1, human insulin-like growth factor I …. In words: displacement of [125I]IGF-1 on R+ intact cells expressing IGF-IR.
In assay [4] the target is T2, Hybrid-RsA (insulin/IGF-I hybrid receptor with IR isoform A) (human, UniProt P08069 31-1367; P06213 28-1370).
T2 construct: Heterodimer of an IGF-IR half and an IR-A half, captured on plates coated with antibody 83-7; also called HR-A; hybrid receptors A
As to the kind of experiment: displacement of [125I]-IGF1 on immunocaptured Hybrid-RsA.

These results are taken from patent publication US20110091479A1 (PIERRE FABRE MEDICAMENT, published 2011).

A word on the IC50: it is the concentration at which inhibition is half-maximal. Read a low IC50 as inhibition by little substance. In turn, αIR3 (antibody) yielded an IC50 in assay [1] of 50 pM.

B1: 12D5 (antibody, V domains shown)
VH: QVQLKESGPGLVAPSQSLSITCTVSGFSLNEYGVSWIRQPPGKGLEWLGVIWGGRDTYYHSPLKSRLSITKDNSKSQVFLKMNSLQTDDTAMYYCAKHEGMDYWGQGTSVTVSS
VL: DIVMTQSQKFMSTSVGDRVSVTCKASQNVVTNVAWYQHKPGHSPKPLIYSASYRYSGVPDRFTGSGSGTDFTLTINNVQSEDLAEYFCHQYNNFPLTFGAGTKLELK
B1: the “proliferative index of MCF-7 cells at 50 ng/ml IGF1, antibody 5 µg/ml” value (“proliferative index of MCF-7 cells” below) in assay [2] is less than 5.

B2: 2D10 (antibody, V domains shown)
VH: EVNLVESGGILVKPGGSLRLSCAASGFTFSNYAMSWVRQTPEKRLEWVASIGSAGYIHYPDSVKGRFTISRDNARNILYLQMSSLRSEDTAMYYCAREGGLVWFAYWGQGTLVTVSA
VL: ETTVTQSPASLSVATGEKVTIRCITSTDIDDDMNWYQQKPGEPPKLLISEGNTLRPGVPSRFSSSGYGTDFVLTIENTLSEDVADYYCLQSDKMPLTFGAGTKLELK
notes: also called hybridoma CNCM I-3214
Take B2: the figures for the IC50 in assay [3] and in assay [4] were 150 pM and 200 pM, respectively. For the same molecule, the “proliferative index of MCF-7 cells” value in assay [2] is less than 5.

B3: 13F5 (antibody, V domains shown)
VH: QAQLQQPGAVLVRPGASVKLSCKASSYSFTDYWMNWVKRRPGQGLQWIGLIHPSDSETRLDQNFKDKATLTVDKFSSTAYMQLNSPTSEDSAVYYCTRSVIYYGNYRWYFDVWGAGTTVTVSS
VL: DVLMTQTPLSLPVSLGDQASISCRSSQTIIHSNGNTYLEWYLQKPGQSPKLLIYKVSNRFSGVPDRFSGSGSGTDFTLKISRVEAEDLGVYYCFQGSHVPYTFGGGTKLEIK
notes: also called hybridoma CNCM I-3193
Turning to B3, the IC50 was found to be 200 pM in assay [3] and 350 pM in assay [4]. The “proliferative index of MCF-7 cells” value in assay [2] is less than 5.

B4: 12B1 (antibody, V domains shown)
VH: QVQLKESGPDLVAPSQSLSITCTVSGFSLTNYGVHWVRQFPGKGLEWLGVIWAGGNTNYNSALMSRLTISKDNSKSQVFLKMNSLQTDDTAVYYCAREYGSTYVAWFAHWGQGTLVTVSS
VL: ENVLTQSPAIMSASPGEKVTMTCGASSSVSSSFLHWYQQKSGASPKLWIYSTSNLASGVPTRFSGSGSGTSYSLTISSVEAEDAATYYCQQYSGYPLTFGAGTKLELK
With B4, in assay [2], the “proliferative index of MCF-7 cells” value is less than 5.
